Test [1] addresses T1, BamB (as a subunit of the purified BAM complex) (E. coli, UniProt P77774 20-392).
T1 construct: BamB, E. coli, accessory lipoprotein of BAM, expressed from pJH114; Stood in the assays within the whole BAM complex, not alone
Kind of test: HDX-MS; differential HDX; 8 µM BAM with 10 µM SurA-WT or SurA-core, or 8 µM SurA-WT with 10 µM BAM; 0.02% DDM, 10 mM potassium phosphate, pH 8.0; labelling at 4 °C for 0.5, 2, 30, 120 min. The settings on record: both partners purified.

Test [2] has as its target β-barrel assembly machinery (BAM) complex, BamABCDE (E. coli, UniProt P0A940 21-810; P77774 20-392; P0A903 25-344; P0AC02 20-245; P0A937 20-113). Kind of test: cell-based or functional assay.
The target of the next test is T2, SurA-core (E. coli, UniProt P0ABZ6 21-428, removing residues 172–389).
T2 construct: gene numbering including the signal peptide; source: E. coli BL21(DE3), purified (HisTrap with on-column 6 M Gdn-HCl wash, TEV cleavage, second HisTrap); not shown: His6, N-terminal, cleaved
T2 sequence: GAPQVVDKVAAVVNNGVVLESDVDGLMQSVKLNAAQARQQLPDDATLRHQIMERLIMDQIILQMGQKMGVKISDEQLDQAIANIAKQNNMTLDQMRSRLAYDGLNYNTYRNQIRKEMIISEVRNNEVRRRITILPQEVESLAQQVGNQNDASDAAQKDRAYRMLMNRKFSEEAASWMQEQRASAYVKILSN
Kind of test: MST; 100 nM Alexa Fluor 488-labelled tOmpA, SurA or SurA domain deletion variant titrated 100 µM-3 nM, 0.8 M urea, 20 mM Tris-HCl, pH 8.0, 25 °C; Hill binding model; apparent Kd. The settings on record: both partners purified.

Another test concerns the target T3, SurA-WT (E. coli, UniProt P0ABZ6 21-428).
T3 construct: gene numbering including the signal peptide; also called wild-type SurA; source: E. coli BL21(DE3), purified (HisTrap with on-column 6 M Gdn-HCl wash, TEV cleavage, second HisTrap); not shown: His6, N-terminal, cleaved
T3 sequence: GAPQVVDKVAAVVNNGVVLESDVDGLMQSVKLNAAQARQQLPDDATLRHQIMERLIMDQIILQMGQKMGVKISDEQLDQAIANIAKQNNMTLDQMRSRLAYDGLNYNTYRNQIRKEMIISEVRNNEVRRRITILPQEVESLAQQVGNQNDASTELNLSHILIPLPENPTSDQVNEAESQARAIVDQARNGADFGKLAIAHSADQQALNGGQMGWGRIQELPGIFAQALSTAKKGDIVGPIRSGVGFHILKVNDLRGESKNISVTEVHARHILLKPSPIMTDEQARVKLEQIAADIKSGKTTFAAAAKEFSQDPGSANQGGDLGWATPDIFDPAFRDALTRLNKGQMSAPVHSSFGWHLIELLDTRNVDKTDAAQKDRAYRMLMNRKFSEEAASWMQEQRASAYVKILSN
Described as above. The settings on record: both partners purified.

In another test the target is T4, SurA-∆P2 (E. coli, UniProt P0ABZ6 21-428, removing residues 281–389).
T4 construct: gene numbering including the signal peptide; source: E. coli BL21(DE3), purified (HisTrap with on-column 6 M Gdn-HCl wash, TEV cleavage, second HisTrap); not shown: His6, N-terminal, cleaved
T4 sequence: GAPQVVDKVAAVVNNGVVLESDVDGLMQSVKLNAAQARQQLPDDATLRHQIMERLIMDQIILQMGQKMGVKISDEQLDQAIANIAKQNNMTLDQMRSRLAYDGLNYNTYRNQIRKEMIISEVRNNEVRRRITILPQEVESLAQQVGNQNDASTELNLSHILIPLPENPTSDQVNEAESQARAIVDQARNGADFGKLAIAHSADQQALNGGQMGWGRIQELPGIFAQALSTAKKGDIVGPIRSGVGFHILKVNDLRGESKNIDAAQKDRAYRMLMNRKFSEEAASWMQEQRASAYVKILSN
The description is as above. The settings on record: both partners purified.

In a further test the target is T5, SurA-∆P1 (E. coli, UniProt P0ABZ6 21-428, removing residues 172–280).
T5 construct: gene numbering including the signal peptide; source: E. coli BL21(DE3), purified (HisTrap with on-column 6 M Gdn-HCl wash, TEV cleavage, second HisTrap); not shown: His6, N-terminal, cleaved
T5 sequence: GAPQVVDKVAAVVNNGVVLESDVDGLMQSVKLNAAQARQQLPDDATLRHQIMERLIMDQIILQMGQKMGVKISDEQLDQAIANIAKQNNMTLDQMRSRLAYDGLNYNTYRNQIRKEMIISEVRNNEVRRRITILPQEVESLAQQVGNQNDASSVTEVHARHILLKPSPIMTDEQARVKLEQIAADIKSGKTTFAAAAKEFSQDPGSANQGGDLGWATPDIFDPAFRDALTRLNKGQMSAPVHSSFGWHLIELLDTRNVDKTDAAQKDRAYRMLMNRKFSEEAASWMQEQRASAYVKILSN
The test is described as above. The settings on record: both partners purified.

Experimental findings from article PMC9177699, “Dynamic interplay between the periplasmic chaperone SurA and the BAM complex in outer membrane protein folding” (Communications Biology, 2022) are described below.

B1: SurA-core (SurA 21-428 without residues 172-389, His-tag cleaved) (domain or fragment, E. coli, UniProt P0ABZ6 21-428, looked up)
chain: APQVVDKVAAVVNNGVVLESDVDGLMQSVKLNAAQARQQLPDDATLRHQIMERLIMDQIILQMGQKMGVKISDEQLDQAIANIAKQNNMTLDQMRSRLAYDGLNYNTYRNQIRKEMIISEVRNNEVRRRITILPQEVESLAQQVGNQNDASDAAQKDRAYRMLMNRKFSEEAASWMQEQRASAYVKILSN
notes: numbers are the gene numbering (including the signal peptide); A G of the TEV site probably stays after cleavage (surmised); source: E. coli BL21(DE3), purified (HisTrap, on-column denaturation with 6 M Gdn-HCl, TEV cleavage, second HisTrap); not shown: His6, N-terminal, cleaved
With B1, the binding result in test [1] is given as “binds”. For the same molecule, the “rate of BAM-catalysed folding of tOmpA into proteoliposomes (cold SDS–PAGE), with SurA-core against SurA-WT” value in test [2] is around 3 fold.

B2: Alexa Fluor 488-labelled tOmpA (domain or fragment)
chain: MCAPKDNTWYTGAKLGWSQYHDTGFINNNGPTHENQLGAGAFGGYQVNPYVGFEMGYDWLGRMPYKGSVENGAYKAQGVQLTAKLGYPITDDLDIYTRLGGMVWRADTKSNVYGKNHDTGVSPVFAGGVEYAITPEIATRLEYQWTNNIGDAHTIGTRPDNGMLSLGVSYRFG
modifications: Alexa Fluor 488 (C5 maleimide) on the added cysteine
notes: N-terminal Met and the Cys residue added immediately following it; unfolded: kept in 8 M urea and diluted to 0.8 M urea for the assay; also called Cys-tOmpA
Consider B2, for which the Kd in the test with SurA-core is 10.2 µM; in the test with SurA-WT it was 3.7 µM; with SurA-∆P2 it was 8.8 µM; with SurA-∆P1, 14.5 µM.
